Read-outs that look alike come from different tables or passages of the source. Values belong to the molecule of their own block, whether it stands above or below them.
What was measured:
[1] = molecular target: Bacillus subtilis GlnK, wild type (Bacillus subtilis); assay: crystal structure
[2] = molecular target: Bacillus subtilis TnrA, full length (Bacillus subtilis) (UniProt Q45666); assay: ITC
[3] = molecular target: Bacillus subtilis GlnK, wild type (Bacillus subtilis); assay: SAXS
[4] = molecular target: Bacillus megaterium TnrA, full length (Bacillus megaterium); assay: crystal structure
TnrA;GlnK = molecular target: T1, TnrA;GlnK (Bacillus subtilis;Bacillus subtilis, UniProt Q45666;Q07428 1-110;1-116, |); assay: SAXS
T1 sequence 1: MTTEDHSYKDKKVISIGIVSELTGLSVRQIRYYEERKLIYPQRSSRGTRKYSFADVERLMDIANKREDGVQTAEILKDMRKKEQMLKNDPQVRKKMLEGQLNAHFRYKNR
T1 sequence 2: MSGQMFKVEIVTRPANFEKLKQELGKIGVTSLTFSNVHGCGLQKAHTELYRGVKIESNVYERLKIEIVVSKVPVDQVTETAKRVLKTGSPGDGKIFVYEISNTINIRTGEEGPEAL

TnrA [5] = molecular target: T2, TnrA (Bacillus megaterium, UniProt G2RUZ1 1-108); assay: X-ray crystallography
T2 sequence: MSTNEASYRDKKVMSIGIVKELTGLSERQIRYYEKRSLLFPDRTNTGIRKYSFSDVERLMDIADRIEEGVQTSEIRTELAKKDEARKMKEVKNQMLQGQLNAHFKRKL

[6] = molecular target: T3, Bacillus subtilis glutamine synthetase, wild type, full length (Bacillus subtilis, UniProt P12425 1-444); assay: crystal structure
T3 sequence (looked up): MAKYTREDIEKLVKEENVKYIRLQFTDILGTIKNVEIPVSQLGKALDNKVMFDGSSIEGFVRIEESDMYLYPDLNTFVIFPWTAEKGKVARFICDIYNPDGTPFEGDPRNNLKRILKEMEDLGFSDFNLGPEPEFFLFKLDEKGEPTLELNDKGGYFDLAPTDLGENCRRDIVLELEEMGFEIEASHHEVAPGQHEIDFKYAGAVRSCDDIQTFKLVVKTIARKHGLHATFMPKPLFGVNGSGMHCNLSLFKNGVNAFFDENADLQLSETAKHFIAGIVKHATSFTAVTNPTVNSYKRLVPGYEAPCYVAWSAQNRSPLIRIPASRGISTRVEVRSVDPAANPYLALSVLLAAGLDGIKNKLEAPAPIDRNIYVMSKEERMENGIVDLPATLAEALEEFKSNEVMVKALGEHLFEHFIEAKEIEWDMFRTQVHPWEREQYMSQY

crystal structure = molecular target: the molecule itself; assay: crystal structure
[7] = molecular target: T3, Bacillus subtilis glutamine synthetase, …; assay: crystal structure; remark: listed apart in the source
GS(E424K) = molecular target: T4, GS(E424K) (Bacillus subtilis, UniProt P12425 1-444, E424K); assay: fluorescence polarisation
T4 sequence (looked up): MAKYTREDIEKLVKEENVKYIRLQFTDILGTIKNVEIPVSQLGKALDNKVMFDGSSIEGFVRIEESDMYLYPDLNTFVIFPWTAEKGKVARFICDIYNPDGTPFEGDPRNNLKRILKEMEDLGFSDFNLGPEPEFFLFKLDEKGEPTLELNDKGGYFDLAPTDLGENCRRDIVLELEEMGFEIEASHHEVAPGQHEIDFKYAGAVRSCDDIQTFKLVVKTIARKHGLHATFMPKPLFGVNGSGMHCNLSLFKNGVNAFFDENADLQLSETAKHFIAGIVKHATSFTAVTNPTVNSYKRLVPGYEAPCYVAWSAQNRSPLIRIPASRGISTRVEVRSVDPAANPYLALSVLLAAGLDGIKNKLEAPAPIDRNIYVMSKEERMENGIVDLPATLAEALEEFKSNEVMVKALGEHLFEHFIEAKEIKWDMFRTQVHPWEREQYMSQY

TnrA [8] = molecular target: T5, TnrA (Bacillus subtilis, UniProt Q45666 1-110); assay: fluorescence polarization
T5 sequence: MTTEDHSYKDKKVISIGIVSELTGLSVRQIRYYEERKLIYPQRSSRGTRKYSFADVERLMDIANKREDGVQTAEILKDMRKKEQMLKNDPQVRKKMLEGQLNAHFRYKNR

GlnRΔ18 = molecular target: T6, GlnRΔ18 (Bacillus subtilis, UniProt P37582 1-117, del118-135); assay: fluorescence polarization
T6 sequence: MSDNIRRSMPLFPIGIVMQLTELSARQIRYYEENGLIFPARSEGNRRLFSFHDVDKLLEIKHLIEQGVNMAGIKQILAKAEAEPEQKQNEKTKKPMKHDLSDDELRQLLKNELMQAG

GlnR FL = molecular target: T7, GlnR FL (Bacillus subtilis, UniProt P37582 1-135); assay: fluorescence polarization
T7 sequence: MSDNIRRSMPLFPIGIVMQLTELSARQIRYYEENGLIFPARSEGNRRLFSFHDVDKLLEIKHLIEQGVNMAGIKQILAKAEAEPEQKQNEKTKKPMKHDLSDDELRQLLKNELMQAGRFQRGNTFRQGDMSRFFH

B1: 17mer SAXS (dsDNA)
DNA 1: TGTCAGATAATCTGACA
DNA 2: TGTCAGATTATCTGACA
binding result (TnrA;GlnK): binds

B2: 21mer site (crystal) (dsDNA)
DNA 1: CGTGTAAGATTTCCTGACACG
DNA 2: CGTGTCAGGAAATCTTACACG
binding result (TnrA [5]): binds

B3: GlnRΔ18 (domain or fragment, Bacillus subtilis, UniProt P37582 1-117, looked up)
chain: MSDNIRRSMPLFPIGIVMQLTELSARQIRYYEENGLIFPARSEGNRRLFSFHDVDKLLEIKHLIEQGVNMAGIKQILAKAEAEPEQKQNEKTKKPMKHDLSDDELRQLLKNELMQAG
stoichiometry N (crystal structure): 2

B5: 17mer FP (dsDNA)
DNA 1: TGTAAGATTTCCTGACA
DNA 2: TGTCAGGAAATCTTACA
Kd (TnrA [8]): 15.7 ± 0.9 nM | Kd (GlnRΔ18): 8.1 ± 0.3 nM

B6: 21mer FP (dsDNA)
DNA 1: CGTGTAAGATTTCCTGACACG
DNA 2: CGTGTCAGGAAATCTTACACG
Kd (TnrA [8]): 11.6 ± 1.8 nM | Kd (GlnRΔ18): 6 ± 0.9 nM | binding signal (GlnR FL): > 10 fold weaker than GlnRΔ18

Next, values leading:

stoichiometry N [1]: 3 | stoichiometry N (GlnK subunit per TnrA subunit) [2]: 0.5 | stoichiometry N [3]: 3
Molecule: Bacillus subtilis GlnK, wild type (natural protein)

stoichiometry N [4]: 2
Molecule: Bacillus megaterium TnrA, full length (natural protein)

binding result [6]: binds
Molecule: RFQRGNTFRQGDMSRFFH [GlnR C-terminal peptide]

binding result [7]: binds
Molecule: EILKDMRKKEQMLKNDPQVRKKMLEGQLNAHFRYKNR (domain or fragment, Bacillus subtilis, UniProt Q45666 74-110, looked up) [TnrA(74–110)]

binding result (GS(E424K)): binds
B4: TnrA(K108E) (natural protein, Bacillus subtilis, UniProt Q45666 1-110, looked up)
chain: MTTEDHSYKDKKVISIGIVSELTGLSVRQIRYYEERKLIYPQRSSRGTRKYSFADVERLMDIANKREDGVQTAEILKDMRKKEQMLKNDPQVRKKMLEGQLNAHFRYENR

From publication PMC4335299 (Genes & Development, 2015)
